This note sets out measurements from article PMC9492775.

The target in the experiment is C3 degradation products deposited on the bacterial surface (human) (UniProt P01024). In words: flow cytometry on cells; S. aureus JE2Δsbi spa::Tn opsonised in 10% NHS, incubated with polyclonal anti-human C3d antibody or not, washed, then probed with biotin-labelled Sbi-IV and streptavidin-AF488; gMFI.
UniProt P01024, sequence (P01024 23-1663): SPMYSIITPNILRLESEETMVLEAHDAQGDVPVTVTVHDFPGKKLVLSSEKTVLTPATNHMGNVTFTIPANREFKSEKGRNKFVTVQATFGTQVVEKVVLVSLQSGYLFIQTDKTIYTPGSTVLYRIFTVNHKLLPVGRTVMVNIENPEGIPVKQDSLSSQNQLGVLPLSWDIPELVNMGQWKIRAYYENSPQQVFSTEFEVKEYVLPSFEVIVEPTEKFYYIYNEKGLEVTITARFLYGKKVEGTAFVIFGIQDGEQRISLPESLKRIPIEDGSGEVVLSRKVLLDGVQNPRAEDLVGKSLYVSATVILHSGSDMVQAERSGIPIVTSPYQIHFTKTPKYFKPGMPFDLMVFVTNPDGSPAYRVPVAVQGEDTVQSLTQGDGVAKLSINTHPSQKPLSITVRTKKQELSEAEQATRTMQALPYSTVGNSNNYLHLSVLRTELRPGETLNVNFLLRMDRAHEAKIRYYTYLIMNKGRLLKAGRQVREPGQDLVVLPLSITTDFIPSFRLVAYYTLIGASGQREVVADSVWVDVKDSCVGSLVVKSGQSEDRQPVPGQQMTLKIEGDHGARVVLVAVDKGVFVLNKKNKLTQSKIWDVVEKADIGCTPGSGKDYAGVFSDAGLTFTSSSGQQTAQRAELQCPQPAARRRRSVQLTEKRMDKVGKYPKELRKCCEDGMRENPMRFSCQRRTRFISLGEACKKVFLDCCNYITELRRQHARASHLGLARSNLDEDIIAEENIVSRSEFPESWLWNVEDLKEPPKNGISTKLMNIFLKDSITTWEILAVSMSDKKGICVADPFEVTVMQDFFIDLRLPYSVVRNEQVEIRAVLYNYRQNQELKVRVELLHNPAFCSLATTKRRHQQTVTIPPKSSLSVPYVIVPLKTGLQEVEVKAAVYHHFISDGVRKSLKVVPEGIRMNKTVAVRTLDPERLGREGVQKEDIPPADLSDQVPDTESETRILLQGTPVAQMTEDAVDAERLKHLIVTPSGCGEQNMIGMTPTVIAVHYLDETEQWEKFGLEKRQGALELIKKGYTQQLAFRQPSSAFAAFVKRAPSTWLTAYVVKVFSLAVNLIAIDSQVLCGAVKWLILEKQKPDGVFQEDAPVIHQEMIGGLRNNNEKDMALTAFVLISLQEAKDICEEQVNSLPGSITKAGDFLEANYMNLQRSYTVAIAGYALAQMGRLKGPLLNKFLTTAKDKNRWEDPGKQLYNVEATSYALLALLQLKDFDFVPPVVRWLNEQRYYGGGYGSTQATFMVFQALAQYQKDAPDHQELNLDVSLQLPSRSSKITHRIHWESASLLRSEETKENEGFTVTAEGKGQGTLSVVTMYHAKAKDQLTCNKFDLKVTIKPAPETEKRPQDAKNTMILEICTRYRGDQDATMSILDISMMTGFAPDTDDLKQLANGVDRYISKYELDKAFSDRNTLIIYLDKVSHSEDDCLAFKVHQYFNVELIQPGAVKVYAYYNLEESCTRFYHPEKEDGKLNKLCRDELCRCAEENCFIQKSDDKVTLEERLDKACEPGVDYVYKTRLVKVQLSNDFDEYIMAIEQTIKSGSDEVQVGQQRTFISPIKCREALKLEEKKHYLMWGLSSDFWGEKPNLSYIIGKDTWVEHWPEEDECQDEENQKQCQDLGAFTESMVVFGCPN

The substance “biotin-labelled Sbi-IV (complement C3 binding domain IV of the staphylococcal Sbi protein) (from UniProt Q931F4 198-266) (domain or fragment)” registered a percent reduction of binding after polyclonal anti-C3d antibodies of 50%.
